Experimental data published in patent US20220259289A1 (Janssen / Centocor, published 2022).
Residue numbers refer to the chain shown, from its start. Each block holds one binder with its values, some of them ahead of it.

What was measured:
[1] = target: human serum albumin (human) (UniProt P02768); experiment: ELISA, bacterial lysate on plate-bound antigen, luminescence
[2] = target: unrelated Fc-fused recombinant protein (negative control); experiment: as above
[3] = target: T1, recombinant biotinylated human CD137 protein (Fc-fusion protein, R&D Systems 838-4B) (human, UniProt Q07011 24-186, biotinylated (site not stated)); experiment: as above
T1 construct: Bought Fc fusion; The ELISA used the same antigen as the panning; also called CD137-Fc; biotinylated CD137; not shown: Fc part of the bought fusion protein
Summary of the method: (§1)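 Biotinylated CD137-Fc, an unrelated Fc-fusion protein or human serum albumin captured 1 h on streptavidin plates blocked in Starting Block T20; diluted bacterial lysate applied 1 h. Bound binders detected with HRP-conjugated anti-Centyrin antibody (PAB25) for 1 h, then POD substrate read-out.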

[4] = target: unrelated Fc-fused recombinant protein; experiment: ELISA, negative control Fc protein
human serum albumin = target: T2, human serum albumin (human, UniProt P02768 25-609); experiment: ELISA, negative control HSA
T2 construct: Negative control of the ELISA; also called HSA
Summary of the method: as §1

[5] = target: T3, recombinant biotinylated CD137 protein (Fc-fusion protein, R&D Systems 838-4B) (human, UniProt Q07011 24-186, biotinylated, sites not stated); experiment: ELISA, lysate on biotinylated CD137-Fc
T3 construct: Bought Fc fusion; also called CD137-Fc
Summary of the method: as §1

[6] = target: extracellular domain of human CD137 on the surface of CHO-K1 cells (human, UniProt Q07011 24-186); experiment: flow cytometry on CHO-K1 cells with human CD137 ECD
Description: Cell surface binding was analyzed via flow cytometry. Cenyrins were prepared at a maximal concentration of 500 nM in the presence of 125 nM anti His-mIgG1 antibody and then serially diluted in PBS/1% FCS buffer. Samples were then applied to approx 100 000 CHO-Kl cells expressing the extracellular domain of human CD137 on their surface. Unbound Centyrin/Antibody complexes were washed away and bound FN3 domains were detected by the addition of goat anti mouse-FITC labeled antibody. Samples were then aquired by flow cytometry. Subsequently, Mean flurescence intensity was plotted against the log Centyrin concentration and EC50 values were calculated by nonlinear regression using GraphPad Prism.

[7] = target: T4, recombinant human CD137-Fc-IgG1 (human, UniProt Q07011 24-186, limits assumed); experiment: SPR (Biacore T100), CD137-Fc captured by anti human IgG, 1:1 model
T4 construct: Captured by anti human IgG on the Biacore chip
Description: For selected FN3 domains, binding to recombinant CD137-Fc was evaluated using surface plasmon resonance (Biacore T100). For each cycle approximately 500 RU of recombinant human CD137-Fc-IgG1 was captured via an anti human IgG immobilized on the surface of a CMS chip. Once CD137-Fc protein was captured, increasing concentrations of Centyrin candidates were injected for 120 s and dissociation was then analyzed for 240 s. A flow cell immobilized with just the anti human IgG1 antibody served as reference flow cell. Kd values were subsequently extrapolated using a 1:1 kinetic binding model (BiaEvaluation software).

T2 sequence (P02768 25-609 limits assumed): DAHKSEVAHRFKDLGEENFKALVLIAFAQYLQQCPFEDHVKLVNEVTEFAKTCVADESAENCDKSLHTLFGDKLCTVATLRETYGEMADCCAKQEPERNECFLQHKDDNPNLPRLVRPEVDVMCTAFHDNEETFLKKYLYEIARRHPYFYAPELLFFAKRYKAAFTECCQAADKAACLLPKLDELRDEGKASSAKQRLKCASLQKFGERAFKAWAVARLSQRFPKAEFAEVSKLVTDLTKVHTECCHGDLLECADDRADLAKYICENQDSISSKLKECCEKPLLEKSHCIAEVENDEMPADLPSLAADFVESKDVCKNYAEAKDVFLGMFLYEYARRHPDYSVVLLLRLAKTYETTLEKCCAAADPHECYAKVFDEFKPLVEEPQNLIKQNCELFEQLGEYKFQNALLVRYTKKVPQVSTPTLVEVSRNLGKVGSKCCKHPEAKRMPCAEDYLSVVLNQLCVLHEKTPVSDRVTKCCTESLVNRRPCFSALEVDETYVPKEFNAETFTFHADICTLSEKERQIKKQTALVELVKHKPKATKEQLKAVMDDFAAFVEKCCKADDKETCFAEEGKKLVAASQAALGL
Chain of human serum albumin (human) (P02768 25-609 limits assumed): as above

B1: ISOP120HR5P1E2 (designed binder, not shown: small tags and cut ends)
chain: LPAPKNLVVSHVTEDSARLSWTAPDAAFDSFEIYYLEGGRGEAIVLTVPGSERSYDLTVLKPGTEYLGTIYGVKCGWASNPLSAIFTT
notes: FN3 domain (Centyrin); tested as E. coli lysate
ELISA HSA (RLU) [1]: 2880 RLU
ELISA Fc Control (RLU) [2]: 720 RLU
ELISA CD137-Fc (RLU) [3]: 1.32e+06 RLU

B2: ISOP193ER9P1A4 (designed binder, not shown: small tags and cut ends)
chain: LPAPKNLIVSRVTEDSARLSWTAPDAAFDSFEIYYKELRAEGEAIVLTVPGSERSYDLTGLKPGTEYLVTIYGVKGGSVSIPLSAIFTT
ELISA Fc Control (RLU) [4]: 960 RLU
ELISA HSA (RLU) (human serum albumin): 480 RLU
ELISA CD137 (RLU) [5]: 9.81e+06 RLU
EC50 [6]: 27.1 nM
Kd [7]: 117 nM

B5: ISOP193ER9P1G9 (designed binder, not shown: small tags and cut ends)
chain: B2 chain with I8V, E32D, K36F, L38H, R39P, A40V, E41G, S78N, V79G, I81S
ELISA Fc Control (RLU) [4]: 1280 RLU
ELISA HSA (RLU) (human serum albumin): 400 RLU
ELISA CD137 (RLU) [5]: 1.29e+07 RLU
EC50 [6]: 15.3 nM
Kd [7]: 59.9 nM

B7: ISOP193ER9P1C4 (designed binder, not shown: small tags and cut ends)
chain: B2 chain with I8V, E32D, K36F, L38H, R39P, A40V, E41G, S78I, V79W, I81V
ELISA Fc Control (RLU) [4]: 960 RLU
ELISA HSA (RLU) (human serum albumin): 320 RLU
ELISA CD137 (RLU) [5]: 1.55e+07 RLU
EC50 [6]: 18.9 nM
Kd [7]: 13.1 nM

B8: ISOP193ER9P1G2 (designed binder, not shown: small tags and cut ends)
chain: B2 chain with I8V, E32D, K36F, L38Q, R39P, A40V, E41G, S78Y, V79L, I81M
ELISA Fc Control (RLU) [4]: 1680 RLU
ELISA HSA (RLU) (human serum albumin): 720 RLU
ELISA CD137 (RLU) [5]: 7.19e+06 RLU
EC50 [6]: 22.9 nM
Kd [7]: 65.6 nM

B9: ISOP193ER9P1E2 (designed binder, not shown: small tags and cut ends)
chain: B2 chain with I8V, E32D, K36F, L38H, R39P, A40V, E41G, S78F, V79W, I81Q
ELISA Fc Control (RLU) [4]: 1040 RLU
ELISA HSA (RLU) (human serum albumin): 560 RLU
ELISA CD137 (RLU) [5]: 1.57e+07 RLU
EC50 [6]: 15.3 nM
Kd [7]: 10.9 nM

B10: ISOP193ER9P1C10 (designed binder, not shown: small tags and cut ends)
chain: B2 chain with P2L, I8V, T22I
ELISA Fc Control (RLU) [4]: 2480 RLU
ELISA HSA (RLU) (human serum albumin): 560 RLU
ELISA CD137 (RLU) [5]: 8.87e+06 RLU
EC50 [6]: 31 nM
Kd [7]: 108 nM

More lines, now with the values ahead:

ELISA Fc Control (RLU) [4]: 1200 RLU
ELISA HSA (RLU) (human serum albumin): 560 RLU
ELISA CD137 (RLU) [5]: 1.5e+07 RLU
EC50 [6]: 12.6 nM
Kd [7]: 10.6 nM
B3: ISOP193ER9P1E1 (designed binder, not shown: small tags and cut ends)
chain: B2 chain with I8V, E32D, K36F, L38H, R39P, A40V, E41G

ELISA Fc Control (RLU) [4]: 1120 RLU
ELISA HSA (RLU) (human serum albumin): 480 RLU
ELISA CD137 (RLU) [5]: 1.6e+07 RLU
EC50 [6]: 12.9 nM
Kd [7]: 9.55 nM
B4: ISOP193ER9P1D4 (designed binder, not shown: small tags and cut ends)
chain: B2 chain with I8V, E32D, K36F, L38H, R39P, A40V, E41G, S78T, V79Y, I81P

ELISA Fc Control (RLU) [4]: 880 RLU
ELISA HSA (RLU) (human serum albumin): 560 RLU
ELISA CD137 (RLU) [5]: 1.43e+07 RLU
EC50 [6]: 14.1 nM
Kd [7]: 25.1 nM
B6: ISOP193ER9P1C9 (designed binder, not shown: small tags and cut ends)
chain: LPAPKNLVVSRVTEDSARLSWTAPDAAFDSFDIYYFEHPVGGEAIVLTVPGSERSYDLTGLKPGTEYLVTIYGVKGGELSKPLSAISTT
